The target of data set [1] is T1, AnGDH (NADP-glutamate dehydrogenase from Aspergillus niger, recombinant) (Aspergillus niger, UniProt B6V7E4).
T1 construct: full-length cDNA in pET43.1(b) NdeI/HindIII, E. coli BL21(DE3), without a tag, purified
T1 sequence (B6V7E4 1-460): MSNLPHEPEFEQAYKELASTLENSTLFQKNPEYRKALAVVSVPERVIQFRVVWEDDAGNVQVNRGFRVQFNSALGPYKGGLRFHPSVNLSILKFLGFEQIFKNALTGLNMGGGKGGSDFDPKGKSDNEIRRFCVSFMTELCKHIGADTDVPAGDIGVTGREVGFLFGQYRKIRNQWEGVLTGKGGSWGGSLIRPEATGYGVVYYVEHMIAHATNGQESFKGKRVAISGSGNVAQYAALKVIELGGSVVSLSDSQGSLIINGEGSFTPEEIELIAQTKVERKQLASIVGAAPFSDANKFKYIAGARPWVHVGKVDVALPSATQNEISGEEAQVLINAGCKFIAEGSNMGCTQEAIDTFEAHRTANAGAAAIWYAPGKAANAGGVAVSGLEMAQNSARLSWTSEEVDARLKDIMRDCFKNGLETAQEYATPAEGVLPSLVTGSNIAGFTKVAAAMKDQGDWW
The data set can be described thus: time-dependent inactivation of forward activity, kapp versus concentration. It is filed as biochemical. The settings on record: covalent, mixed disulfide at Cys141; incubation at 37°C; residual activity in standard forward assay pH 8.0.

Data set [2] concerns the target T1, AnGDH (NADP-glutamate dehydrogenase from Aspergillus niger, recombinant). The data set can be described thus: residual forward activity after […] h incubation. It is filed as biochemical. The settings on record: covalent; saturated cystine (0.47 mM), 1 h, 37°C; standard forward assay pH 8.0.
Another data set concerns T2, O=C(O)CCC(=O)C(=O)O.
T2 construct: full-length cDNA in pET43.1(b) NdeI/HindIII, E. coli BL21(DE3), without a tag, purified
Briefly: purified protein. It is filed as biochemical, Aspergillus niger. The settings on record: forward reaction, sigmoid saturation, Tris-HCl pH 8.0, ammonium chloride and NADPH, room temperature.

The test system of a further data set is T3, N[C@@H](CCC(=O)O)C(=O)O.
T3 construct: full-length cDNA in pET43.1(b) NdeI/HindIII, E. coli BL21(DE3), without a tag, purified
The data set can be described thus: purified protein. It is filed as biochemical, Aspergillus niger. The settings on record: reverse reaction, Tris-HCl pH 9.3, NADP+, room temperature.

The subject of another data set is N. Briefly: purified protein. The settings on record: forward reaction, Tris-HCl pH 8.0, 2-oxoglutarate and NADPH, room temperature.
Substrate in data set [3]: NC(=O)c1ccc[n+]([C@@H]2O[C@H](COP(=O)(O)OP(=O)(O)OC[C@H]3O[C@@H](n4cnc5c(N)ncnc54)[C@H](OP(=O)(O)O)[C@@H]3O)[C@@H](O)[C@H]2O)c1
Briefly: purified protein. The format is biochemical, Aspergillus niger. The settings on record: reverse reaction, Tris-HCl pH 9.3, L-glutamate, room temperature.

Substrate in data set [4]: N[C@@H](CCC(=O)O)C(=O)O
Briefly: purified protein. The settings on record: reverse reaction, Tris-HCl pH 9.3, NADP+, room temperature. The format is biochemical, Aspergillus niger.

Substrate in data set [5]: O=C(O)CCC(=O)C(=O)O
Briefly: purified protein. The format is biochemical, Aspergillus niger. The settings on record: forward reaction, sigmoid saturation, Tris-HCl pH 8.0, ammonium chloride and NADPH, room temperature.

Substrate in data set [6]: NC(=O)C1=CN([C@@H]2O[C@H](COP(=O)(O)OP(=O)(O)OC[C@H]3O[C@@H](n4cnc5c(N)ncnc54)[C@H](OP(=O)(O)O)[C@@H]3O)[C@@H](O)[C@H]2O)C=CC1
The data set can be described thus: purified protein. It is filed as biochemical, Aspergillus niger. The settings on record: forward reaction, Tris-HCl pH 8.0, 2-oxoglutarate and ammonium chloride, room temperature.

Substrate in data set [7]: N
The data set can be described thus: purified protein. The settings on record: forward reaction, Tris-HCl pH 8.0, 2-oxoglutarate and NADPH, room temperature. This is another data set of the same source.

Results on 5 molecules are retold here after publication PMC4079599, “Mixed Disulfide Formation at Cys141 Leads to Apparent Unidirectional Attenuation of Aspergillus niger NADP-Glutamate Dehydrogenase Activity” (PLoS ONE, 2014).

As for `OCCSSCCO` [2-HED], the “second order inactivation rate constant” value in data set [1] was 56.2 M⁻¹ min⁻¹.
For the molecule `N[C@@H](CSSC[C@H](N)C(=O)O)C(=O)O` [Cystine], the “Residual activity (%) / Forward” value in data set [2] came out at 8.3±1.9%.
The molecule “AnGDH (NADP-glutamate dehydrogenase from Aspergillus niger, recombinant) (Aspergillus niger; C141S)” gave a K0.5 in the data set with O=C(O)CCC(=O)C(=O)O of 4.00 mM. The Km – broadly, the substrate concentration at which the rate is half of its maximum – in the data set on N[C@@H](CCC(=O)O)C(=O)O is listed as 28.6 mM; with N, 1.2 mM.
“AnGDH (NADP-glutamate dehydrogenase from Aspergillus niger, recombinant) (Aspergillus niger; C415S)” gave a K0.5 with O=C(O)CCC(=O)C(=O)O of 15.50 mM. Also, the Km in the data set with N[C@@H](CCC(=O)O)C(=O)O amounted to 36.8 mM.

B1: AnGDH (NADP-glutamate dehydrogenase from Aspergillus niger, recombinant) (Aspergillus niger) (protein)
chain: T1 sequence (B6V7E4 1-460)
notes: full-length cDNA in pET43.1(b) NdeI/HindIII, E. coli BL21(DE3), without a tag, purified
As to B1, the Km was found to be 0.028 mM in the data set “purified protein [3]”, 30.9 mM in “purified protein [4]”, 0.023 mM in “purified protein [6]” and 1.1 mM in the data set “purified protein [7]”. For the same molecule, the K0.5 in “purified protein [5]” amounted to 5.70 mM.
